The values below come from IntAct's records for PubMed 24469404.

B1: TERF1-interacting nuclear factor 2 (Mus musculus), Q9QXG9 (parent)
chain: MAPPPGVGPASLRFAAAASWLVVRRRRVEHFPKVVEFLQSLRAAAPGLVCYRHHERLCMSLKAKVVVELILQARPWDQVLNALKHHFPAESRTTKEDRKLLEARENFCLLVKHLSEDPPSSLQELEQDYGESFLVAMEKLLFEYLCQLEKALPPVRAQELQDALSWSQPGSFITSSVALHQYGMDMGWTFPESSTSGSGNLIEPMEESPHQQTRPAFHSPLPKAKLGPHQPASLEHPEHLAGHRFNLAPLGKRKSRSHWTSAKACHKERPTVMLLPFRNMGLPAQDLSNPKSREEPGAASAASVGTEPVCTEEAKTPSRPLGKRALEETPPDSPAASRRTV
partner: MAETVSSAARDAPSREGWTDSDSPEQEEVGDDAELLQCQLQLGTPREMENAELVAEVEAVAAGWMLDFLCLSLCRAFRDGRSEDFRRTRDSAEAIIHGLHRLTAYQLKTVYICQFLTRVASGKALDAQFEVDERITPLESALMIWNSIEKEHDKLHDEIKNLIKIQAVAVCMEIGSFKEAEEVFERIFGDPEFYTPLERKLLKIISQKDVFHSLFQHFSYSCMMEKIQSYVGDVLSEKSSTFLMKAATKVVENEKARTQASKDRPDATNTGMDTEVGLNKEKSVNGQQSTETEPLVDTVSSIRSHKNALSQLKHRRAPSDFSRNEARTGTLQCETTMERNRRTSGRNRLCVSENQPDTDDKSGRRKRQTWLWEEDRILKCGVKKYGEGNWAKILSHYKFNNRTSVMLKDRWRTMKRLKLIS

This assay covers variants of B1. The following applies: with terf1_mouse Terf1, P70371.
Turning to L247E, the “effect of a mutation on the interaction” value is on record as “disrupting interaction”.
